# Substitutions are numbered along the chain they refer to.
# T1: consensus S-HBs protein of HBV genotype E (ConsHBAg_E) (hepatitis B virus genotype E (consensus), UniProt Q69603 174-399)
# T1 construct: also called genotype E S-HBs
# T1 chain: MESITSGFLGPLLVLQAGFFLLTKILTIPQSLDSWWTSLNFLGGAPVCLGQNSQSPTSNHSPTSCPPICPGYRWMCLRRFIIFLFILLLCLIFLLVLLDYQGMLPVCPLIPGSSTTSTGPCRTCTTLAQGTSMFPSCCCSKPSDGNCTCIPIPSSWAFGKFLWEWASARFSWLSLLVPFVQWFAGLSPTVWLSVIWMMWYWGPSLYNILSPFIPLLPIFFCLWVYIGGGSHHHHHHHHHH
# T2: consensus S-HBs protein of HBV genotype I (ConsHBAg_I) (hepatitis B virus genotype I (consensus), UniProt P31873 175-400)
# T2 construct: also called genotype I S-HBs
# T2 chain: T1 chain with S3N, R122K, L127P, T131N, F134Y, S140T, S143T, G159A, F161Y, A184V
# B1: Bc8.111 (antibody)
# heavy: not shown
# light: QSVLTQPHSVSESPGKTVTISCTRSSGSIASNYVQWYQQRPGSAPTTVIYEDNERPSGVPARFSGSIDSSSNSASLTISGLKTEDEADYYCQSYESSNWVFGGGTKLTVLGQPKAAPSVTLFPPSSEELQANKATLVCLISDFYPGAVTVAWKADSSPVKAGVETTTPSKQSNNKYAASSYLSLTPEQWKSHRSYSCQVTHEGSTVEKTVAPTECS
# B2: Bv4.115 (antibody)
# heavy: not shown
# light: DIQMTQSPSTLSASVGDRVTITCRASQSINTWLAWYQQKPGKAPKLLISKASSLESGVPSRFSGSGSGTEFTLSISSLQPDDFATYYCQQYNTFSFGQGTKLEIKRTVAAPSVFIFPPSDEQLKSGTASVVCLLNNFYPREAKVQWKVDNALQSGNSQESVTEQDSKDSTYSLSSTLTLSKADYEKHKVYACEVTHQGLSSPVTKSFNRGEC
# B3: Bc1.263 (antibody, human IgG1, kappa, V domains shown)
# VH: QVQLVQSGAEVKKPGSSVKVSCRASGGTFSNYGVNWVRQAPGQGLEWMGKIIPILGIVNYAQKFQGRVTITADKSTSTAYMELSSLRSEDTAVYYCARDRGGKPLYSYGYGLDYWGQGTLVTVSS
# VL: EIVLTQSPATLSLSPGERATLSCRASLSVSTYLAWYQKKPGQPPRLLIYDASKRATGIPARFSGSGSGTDFTLTISSLEPEDFAVYYCQQRSTTFGQGTKVEIKR
# B4: Bc1.187 (antibody, human IgG1, kappa)
# heavy: not shown
# light: DIQMTQSPSSLSAYVGDRVTITCRASQRISTYLNWYHQRPGKSPSLLIYGASSLQSGVPSRFSASASGTDFTLTISSLRPEDLGTYYCQQTYTLPPNSGGGTKVEIKRTVAAPSVFIFPPSDEQLKSGTASVVCLLNNFYPREAKVQWKVDNALQSGNSQESVTEQDSKDSTYSLSSTLTLSKADYEKHKVYACEVTHQGLSSPVTKSFNRGEC
# notes: also called Bcl.187; Bc1.187_huIgG1_wt
# B5: Bc1.229 (antibody, V domains shown)
# VH: QVQLVESGGGVVQPGRSLRVSCAASGFTFSNYGMHWVRQAPGKGLEWLAVIWNDGSNKYYADSVKGRFIISRDNSKNTLYLQMNSLGAEDTAMYYCAREGLTSVTMLDSWGQGALVTVSS
# VL: DIQMTQSPSSLSASVGDRVTITCRASQYISSFLNWYQQKPGKAPKLLIHVASSLQSGVPSRFSGSGSGTHFTLTISSLQPEDFATYYCQQSYSTPLFTFGPGTKVDIKR
# B6: Bv4.105 (antibody, V domains shown)
# VH: QVQLVESGGGLVQSGRSLRLSCSAFGFTFGDYPIMWVRLAPGKGLEWVGFIRSKAYGGTAEYAASVKGRFTTSRDDSRSTAYLQMNSLKTEDTAVYYCTREGGHSGFWSGFNKIPTFDYWGQGSLVTVSS
# VL: DIQMTQSPSSLSASIGDRVSITCRASETIRTYLNWYQHKPGKAPQLLIYAASSVQSGVPSRFSGSGSGTDFTLTISNLQPEDFATYYCQQSYTSPWVTFGPGTKVDIKR
# B7: Bc1.128 (antibody)
# heavy: not shown
# light: DIQLTQSPSSLSASVGDRVTITCRASQGIRSDLGWYQQKPGKAPKRLIYGASNLQRGVPSRFSGSGSGTEFTLTISSLQPEDFASYYCLQHNSFPWTFGQGTKVEIKRTVAAPSVFIFPPSDEQLKSGTASVVCLLNNFYPREAKVQWKVDNALQSGNSQESVTEQDSKDSTYSLSSTLTLSKADYEKHKVYACEVTHQGLSSPVTKSFNRGEC
# Target: HBV genotype D viruses (produced in HepG2.2.15 cell culture supernatant) (hepatitis B virus genotype D)
# Experiment: cell-based or functional assay
row,Binder,HBV-gD in vitro neutralization (IC50 µg/ml) [µg/mL]
1,B1,2.51e-06
2,B2,3.87e-06
3,B3,3.96e-06
4,B4,5e-08
5,B5,2.53e-05
6,B6,2.95e-06
7,B7,0.000544

# Target: T3, Adw S-HBs protein (adw HBsAg particles, GenHevac (Adw)) (hepatitis B virus, adw subtype)
# T3 construct: also called GenHevac-B
# Experiment: ELISA, AUC of binding curve
# Set-up: unit not given beside the values
row,Binder,AUC (serotype binding)
1,B1,35
2,B2,36
3,B4,36
4,B5,35
5,B6,8
6,B7,35

# Target: T4, Ayw S-HBs protein (ayw HBsAg particles, Engerix-B (Ayw)) (hepatitis B virus, ayw subtype)
# Experiment: ELISA, AUC of binding curve
# Set-up: unit not given beside the values
row,Binder,AUC (serotype binding)
1,B1,36
2,B2,37
3,B4,35
4,B5,34
5,B6,33
6,B7,37

# Target: T3, Adw S-HBs protein (adw HBsAg particles, …)
# Experiment: ELISA on recombinant HBV vaccine particles
# Description: (§1) After washings with 0.05% Tween 20-PBS (PBST), plates were blocked 2 h with 2% BSA, 1 mM EDTA-PBST (Blocking solution), washed, and incubated with serially diluted purified serum IgG and recombinant monoclonal antibodies in PBS. For sandwich ELISAs, plates were coated overnight with purified IgG antibodies (250 ng/well in PBS), and treated as afore-mentioned prior to incubation with biotylinated-rS-HBs (100 ng/well in PBS) in PBS. […] Experiments were performed using HydroSpeed™ microplate washer and Sunrise™ microplate absorbance reader (Tecan Männedorf), with optical density measurements made at 405 nm (OD₄₀₅ₙₘ). […] All antibodies were tested in duplicate or triplicate in at least two independent experiments, which included mGO53 negative and appropriate positive controls.
row,Binder,EC50 [ng/mL]
1,B1,8.9
2,B2,27.7
3,B4,4.9
4,B5,26.1
5,B6,8920
6,B7,7.2

# Target: T4, Ayw S-HBs protein (ayw HBsAg particles, …)
# Experiment: ELISA on recombinant HBV vaccine particles
# Description: as §1
row,Binder,EC50 [ng/mL]
1,B1,9.5
2,B2,5.1
3,B4,3.5
4,B5,12.3
5,B6,4.8
6,B7,5.7

# Target: T5, consensus S-HBs protein of HBV genotype A (ConsHBAg_A) (hepatitis B virus genotype A (consensus), UniProt P03141 175-400)
# T5 construct: also called genotype A S-HBs
# Experiment: flow cytometry, S-HBs-transfected 293-F cells
row,Binder,% of bound S-HBs-expressing cells [%]
1,B1,65
2,B2,88
3,B4,73
4,B5,75
5,B6,21
6,B7,64

# Target: T6, consensus S-HBs protein of HBV genotype B (ConsHBAg_B) (hepatitis B virus genotype B (consensus), UniProt Q9PWW3 175-400)
# T6 construct: also called genotype B S-HBs
# Experiment: flow cytometry, S-HBs-transfected 293-F cells
row,Binder,% of bound S-HBs-expressing cells [%]
1,B1,64
2,B2,83
3,B4,70
4,B5,68
5,B7,67

# Target: T7, consensus S-HBs protein of HBV genotype C (ConsHBAg_C) (hepatitis B virus genotype C (consensus), UniProt P03140 175-400)
# T7 construct: also called genotype C S-HBs
# Experiment: flow cytometry, S-HBs-transfected 293-F cells
row,Binder,% of bound S-HBs-expressing cells [%]
1,B1,72
2,B2,82
3,B4,67
4,B5,76
5,B6,1
6,B7,67

# Target: T8, consensus S-HBs protein of HBV genotype D (ConsHBAg_D) (hepatitis B virus genotype D (consensus), UniProt P03138 164-389)
# T8 construct: also called genotype D S-HBs; ConsD S-HBs
# Experiment: flow cytometry, S-HBs-transfected 293-F cells
row,Binder,% of bound S-HBs-expressing cells [%]
1,B1,71
2,B2,89
3,B4,66
4,B5,73
5,B7,64

# Target: T1, consensus S-HBs protein of HBV genotype …
# Experiment: flow cytometry, S-HBs-transfected 293-F cells
row,Binder,% of bound S-HBs-expressing cells [%]
1,B1,68
2,B2,85
3,B4,66
4,B5,71
5,B7,65

# Target: T9, consensus S-HBs protein of HBV genotype F (ConsHBAg_F) (hepatitis B virus genotype F (consensus), UniProt Q05496 175-400)
# T9 construct: also called genotype F S-HBs
# Experiment: flow cytometry, S-HBs-transfected 293-F cells
# T9 sequence (Q05496 175-400, tags left off): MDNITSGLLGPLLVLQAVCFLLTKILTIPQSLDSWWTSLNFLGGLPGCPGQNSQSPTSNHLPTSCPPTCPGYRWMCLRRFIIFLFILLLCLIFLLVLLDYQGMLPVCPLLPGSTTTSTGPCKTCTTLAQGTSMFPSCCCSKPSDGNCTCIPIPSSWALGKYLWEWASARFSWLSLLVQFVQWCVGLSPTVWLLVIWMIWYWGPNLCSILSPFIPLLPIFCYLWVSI
row,Binder,% of bound S-HBs-expressing cells [%]
1,B1,66
2,B2,73
3,B4,58
4,B5,68
5,B6,46
6,B7,58

# Target: T10, consensus S-HBs protein of HBV genotype G (ConsHBAg_G) (hepatitis B virus genotype G (consensus), UniProt Q9IBI3 174-399)
# T10 construct: also called genotype G S-HBs
# Experiment: flow cytometry, S-HBs-transfected 293-F cells
row,Binder,% of bound S-HBs-expressing cells [%]
1,B1,60
2,B2,83
3,B4,64
4,B5,79
5,B7,58

# Target: T11, consensus S-HBs protein of HBV genotype H (ConsHBAg_H) (hepatitis B virus genotype H (consensus), UniProt Q8JMZ6 175-400)
# T11 construct: also called genotype H S-HBs
# Experiment: flow cytometry, S-HBs-transfected 293-F cells
# T11 sequence (Q8JMZ6 175-400, tags left off): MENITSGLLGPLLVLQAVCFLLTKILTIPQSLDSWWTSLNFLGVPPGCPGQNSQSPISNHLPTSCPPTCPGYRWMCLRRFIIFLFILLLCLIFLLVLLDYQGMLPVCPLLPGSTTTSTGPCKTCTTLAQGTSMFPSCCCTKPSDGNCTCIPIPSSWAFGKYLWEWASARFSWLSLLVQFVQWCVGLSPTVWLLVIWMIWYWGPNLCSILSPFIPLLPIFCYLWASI
row,Binder,% of bound S-HBs-expressing cells [%]
1,B1,67
2,B2,77
3,B4,59
4,B5,74
5,B6,55
6,B7,59

# Target: T2, consensus S-HBs protein of HBV genotype …
# Experiment: flow cytometry, S-HBs-transfected 293-F cells
row,Binder,% of bound S-HBs-expressing cells [%]
1,B1,52
2,B2,71
3,B4,54
4,B5,64
5,B7,47

# Target: genotype D S-HBs mutant protein T126A (hepatitis B virus genotype D, UniProt P03138 164-389)
# Experiment: flow cytometry, S-HBs-transfected 293-F cells
row,Binder,% of bound S-HBs-expressing cells [%]
1,B1,55
2,B2,71
3,B4,60
4,B5,70
5,B7,53

# Target: genotype D S-HBs mutant protein M133T (hepatitis B virus genotype D, UniProt P03138 164-389)
# Experiment: flow cytometry, S-HBs-transfected 293-F cells
row,Binder,% of bound S-HBs-expressing cells [%]
1,B1,54
2,B2,67
3,B4,52
4,B5,62
5,B7,48

# Target: genotype D S-HBs mutant protein Y134V (hepatitis B virus genotype D, UniProt P03138 164-389)
# Experiment: flow cytometry, S-HBs-transfected 293-F cells
row,Binder,% of bound S-HBs-expressing cells [%]
1,B1,56
2,B2,66
3,B4,57
4,B5,67
5,B7,47

# Target: genotype D S-HBs mutant protein G145R (hepatitis B virus genotype D, UniProt P03138 164-389)
# Experiment: flow cytometry, S-HBs-transfected 293-F cells
row,Binder,% of bound S-HBs-expressing cells [%]
1,B1,0
2,B2,60
3,B4,17
4,B7,0

# Target: genotype D S-HBs mutant protein N146S (hepatitis B virus genotype D, UniProt P03138 164-389)
# Experiment: flow cytometry, S-HBs-transfected 293-F cells
row,Binder,% of bound S-HBs-expressing cells [%]
1,B1,55
2,B2,67
3,B4,48
4,B5,56
5,B7,46

# Source: patent publication US20230340081A1 (Hoffmann-La Roche, published 2023)
